The record followed here is PMC7160673, “A Degenerate Peptide Library Approach to Reveal Sequence Determinants of Methyllysine-Driven Protein Interactions” (Frontiers in Cell and Developmental Biology, 2020).

Assay [1] addresses T1, Chromodomain Y-like protein 2 chromodomain.
T1 construct: Chromodomain Y-like protein 2 (CDYL2), chromodomain; also called CDYL2 chromo; source: E. coli BL21, purified (glutathione resin); not shown: GST, N-terminal, kept
T1 sequence (Q8N8U2 whole entry, species assumed, looked up): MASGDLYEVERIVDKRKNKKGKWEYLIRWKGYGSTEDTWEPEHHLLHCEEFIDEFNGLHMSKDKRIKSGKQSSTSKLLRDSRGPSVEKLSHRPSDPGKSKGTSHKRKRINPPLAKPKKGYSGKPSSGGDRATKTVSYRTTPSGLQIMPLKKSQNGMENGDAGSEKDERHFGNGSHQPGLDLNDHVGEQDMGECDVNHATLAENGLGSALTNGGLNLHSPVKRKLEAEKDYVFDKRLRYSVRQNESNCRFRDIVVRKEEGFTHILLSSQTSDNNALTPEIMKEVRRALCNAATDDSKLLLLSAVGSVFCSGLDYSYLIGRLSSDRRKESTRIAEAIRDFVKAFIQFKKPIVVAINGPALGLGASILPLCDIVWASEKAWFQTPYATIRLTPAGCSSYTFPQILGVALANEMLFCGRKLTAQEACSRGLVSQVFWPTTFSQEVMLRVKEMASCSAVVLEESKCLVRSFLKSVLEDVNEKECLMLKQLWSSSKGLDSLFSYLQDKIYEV
Briefly: fluorescence polarisation; protein serially diluted with 10 nM FAM peptide; 25 mM HEPES pH 7.5, 100 mM NaCl, 0.05% NP-40; anisotropy fitted by specific binding with Hill slope. The conditions noted are these: both partners purified. A general note: In fluorescence polarisation assays a small probe gives low polarisation when free and higher when bound to something large.

The target in assay [2] is T2, M Phase Phosphoprotein 8 chromodomain (UniProt Q99549 55-116).
T2 construct: M-phase phosphoprotein 8 (MPP8), chromodomain; also called MPP8 chromo; MPP8; source: E. coli BL21, purified (glutathione resin); not shown: GST, N-terminal, kept
T2 sequence: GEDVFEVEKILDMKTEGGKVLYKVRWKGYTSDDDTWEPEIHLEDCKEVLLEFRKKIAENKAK
The assay is described as above. The conditions noted are these: both partners purified.

Where no end group is shown, it is not given here. [ ]: non-standard residue; d: D form. The star is where a group is joined. 5FAM = O=C1OC2(c3ccc(O)cc3Oc3cc(O)ccc32)c2ccc(C(=O)*)cc21; Lys(Me3) = C[N+](C)(C)CCCC[C@H](N)C(=O)O

The term Kd denotes a measure of binding affinity in units of concentration. A lower Kd goes with tighter binding. Regarding 5FAM-WAY[Lys(Me3)]TGK (also: flanking glycines, number not given here) [FAM-WAY(Kme3)TGK peptide], in assay [1], the Kd is 0.1 ± 0.0066 µM.

5FAM-WSK[Lys(Me3)]RRR (also: flanking glycines, number not given here) [FAM-WSK(Kme3)RRR peptide]: binding in assay [2] was characterised by a dissociation constant (Kd) of 6 µM.
